Reference: patent publication US20190381086

Target: Ubc12^N8 made with wild type Ubc12 (thioester-linked to NEDD8), purified, P61081
Sequence (P61081 whole entry, looked up): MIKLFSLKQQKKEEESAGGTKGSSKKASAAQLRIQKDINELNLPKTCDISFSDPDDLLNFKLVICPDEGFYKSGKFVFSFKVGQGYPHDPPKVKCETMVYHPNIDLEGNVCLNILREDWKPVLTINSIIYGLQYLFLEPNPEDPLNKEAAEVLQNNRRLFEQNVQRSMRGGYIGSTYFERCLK

B1: full-length human GlyRS (protein)
chain: MDGAGAEEVLAPLRLAVRQQGDLVRKLKEDKAPQVDVDKAVAELKARKRVLEAKELALQPKDDIVDRAKMEDTLKRRFFYDQAFAIYGGVSGLYDFGPVGCALKNNIIQTWRQHFIQEEQILEIDCTMLTPEPVLKTSGHVDKFADFMVKDVKNGECFRADHLLKAHLQKLMSDKKCSVEKKSEMESVLAQLDNYGQQELADLFVNYNVKSPITGNDLSPPVSFNLMFKTFIGPGGNMPGYLRPETAQGIFLNFKRLLEFNQGKLPFAAAQIGNSFRNEISPRSGLIRVREFTMAEIEHFVDPSEKDHPKFQNVADLHLYLYSAKAQVSGQSARKMRLGDAVEQGVINNTVLGYFIGRIYLYLTKVGISPDKLRFRQHMENEMAHYACDCWDAESKTSYGWIEIVGCADRSCYDLSCHARATKVPLVAEKPLKEPKTVNVVQFEPSKGAIGKAYKKDAKLVMEYLAICDECYITEMEMLLNEKGEFTIETEGKTFQLTKDMINVKRFQKTLYVEEVVPNVIEPSFGLGRIMYTVFEHTFHVREGDEQRTFFSFPAVVAPFKCSVLPLSQNQEFMPFVKELSEALTRHGVSHKVDDSSGSIGRRYARTDEIGVAFGVTIDFDTVNKTPHTATLRDRDSMRQIRAEISELPSIVQDLANGNITWADVEARYPLFEGQETGKKETIEE
For B1, the “stability (half-life) of Ubc12^N8 in vitro at 37°, SDS-PAGE” value was “In the presence of GlyRS, but not BSA, Ubc12^N8 was significantly more stable than in the absence of GlyRS”.
